Read-outs that look alike come from different tables or passages of the source.
How the values were obtained:
Test in all cases: SPR
Lon [1] = target: T1, Lon (Escherichia coli, UniProt P0A9M0 1-784)
TrfA G254D/S267L = target: T2, TrfA G254D/S267L (plasmid RK2, UniProt P07676 98-382, G254D;S267L)
T2 sequence: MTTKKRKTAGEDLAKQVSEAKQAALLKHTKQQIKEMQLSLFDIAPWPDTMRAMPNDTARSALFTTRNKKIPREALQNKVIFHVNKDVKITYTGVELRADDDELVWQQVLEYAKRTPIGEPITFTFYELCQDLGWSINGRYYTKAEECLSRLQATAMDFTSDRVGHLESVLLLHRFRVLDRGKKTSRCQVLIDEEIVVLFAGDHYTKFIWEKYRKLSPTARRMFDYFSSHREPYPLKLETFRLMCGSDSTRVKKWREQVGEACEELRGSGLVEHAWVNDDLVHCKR

ClpA = target: T3, ClpA (Escherichia coli, UniProt P0ABH9 1-758)
T3 sequence: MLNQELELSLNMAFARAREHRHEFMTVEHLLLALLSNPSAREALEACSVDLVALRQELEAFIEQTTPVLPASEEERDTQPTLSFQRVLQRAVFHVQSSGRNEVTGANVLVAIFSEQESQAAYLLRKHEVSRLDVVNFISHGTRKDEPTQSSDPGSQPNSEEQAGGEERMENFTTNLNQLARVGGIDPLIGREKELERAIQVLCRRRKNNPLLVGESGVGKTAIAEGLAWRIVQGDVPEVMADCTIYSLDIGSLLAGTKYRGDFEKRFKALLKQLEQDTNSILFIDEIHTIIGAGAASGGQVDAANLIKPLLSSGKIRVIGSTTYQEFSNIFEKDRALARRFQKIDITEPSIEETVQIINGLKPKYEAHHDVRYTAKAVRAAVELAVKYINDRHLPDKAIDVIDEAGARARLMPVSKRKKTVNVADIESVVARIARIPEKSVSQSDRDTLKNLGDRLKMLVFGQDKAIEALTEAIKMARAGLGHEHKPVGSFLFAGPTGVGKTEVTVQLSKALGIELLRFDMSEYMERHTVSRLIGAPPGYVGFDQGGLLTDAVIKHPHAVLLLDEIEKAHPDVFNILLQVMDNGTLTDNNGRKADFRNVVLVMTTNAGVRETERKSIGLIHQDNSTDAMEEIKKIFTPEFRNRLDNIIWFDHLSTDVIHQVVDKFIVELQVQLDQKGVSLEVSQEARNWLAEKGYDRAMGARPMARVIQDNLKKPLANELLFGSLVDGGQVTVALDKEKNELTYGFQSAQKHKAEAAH

TrfA wt (His6-TrfA-33) = target: T4, TrfA wt (His6-TrfA-33) (plasmid RK2, UniProt P07676 98-382)
T4 sequence: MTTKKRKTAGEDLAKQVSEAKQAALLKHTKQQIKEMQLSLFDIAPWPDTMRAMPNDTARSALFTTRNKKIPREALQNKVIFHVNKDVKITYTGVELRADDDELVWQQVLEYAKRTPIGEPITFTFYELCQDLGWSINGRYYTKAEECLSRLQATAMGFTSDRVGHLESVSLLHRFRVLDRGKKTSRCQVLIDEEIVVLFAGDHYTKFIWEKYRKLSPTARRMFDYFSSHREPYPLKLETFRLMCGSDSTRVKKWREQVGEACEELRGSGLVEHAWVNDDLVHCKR

Lon [2] = target: T1, Lon; remark: listed apart in the source
[3] = target: Lon;TrfA P151S/G254D/S267L (Escherichia coli;plasmid RK2, UniProt P0A9M0;P07676 1-784;98-382, |P151S;G254D;S267L)

Measured: binding result

B1: frag1 (five RK2 oriV iterons, 129 bp) (dsDNA)
DNA 1: CCTGCGGTATTGACACTTGAGGGGCGCGACTACTGACAGATGAGGGGCGCGATCCTTGACACTTGAGGGGCAGAGTGATGACAGATGAGGGGCGCACCTATTGACATTTGAGGGGCTGTCCACAGGCAG
DNA 2: CTGCCTGTGGACAGCCCCTCAAATGTCAATAGGTGCGCCCCTCATCTGTCATCACTCTGCCCCTCAAGTGTCAAGGATCGCGCCCCTCATCTGTCAGTAGTCGCGCCCCTCAAGTGTCAATACCGCAGG
binds: Lon [1] | TrfA G254D/S267L | ClpA | TrfA wt (His6-TrfA-33)

B2: frag2 (pUC19 fragment, 129 bp) (dsDNA)
DNA 1: AGCTCACAATTCCACACAACATACGAGCCGGAAGCATAAAGTGTAAAGCCTGGGGTGCCTAATGAGTGAGCTAACTCACATTAATTGCGTTGCGCTCACTGCCCGCTTTCCAGTCGGGAAACCTGTCGT
DNA 2: ACGACAGGTTTCCCGACTGGAAAGCGGGCAGTGAGCGCAACGCAATTAATGTGAGTTAGCTCACTCATTAGGCACCCCAGGCTTTACACTTTATGCTTCCGGCTCGTATGTTGTGTGGAATTGTGAGCT
binds: Lon [2] | [3] | ClpA

Reference: paper PMC3273809
